The target of experiment [1] is T1, Peptide-66 (cysteine pairing not given here; also: biotinylated, site not given here).
T1 construct: mask peptide for the CD3 scFv
T1 peptide: GSQCLGPEWEVCPY
Kind of experiment: ELISA, TCE on captured biotin-peptide.

For experiment [2], the target named is T2, Peptide-75 (cysteine pairing not given here; also: biotinylated, site not given here).
T2 construct: mask peptide for the CD3 scFv
T2 peptide: GSACLGPEWEVCPY
Nature of the experiment: ELISA, TCE on captured biotin-peptide. In general terms: ELISA stands for enzyme-linked immunosorbent assay.

The target in experiment [3] is T3, Peptide-72 (cysteine pairing not given here; also: biotinylated, site not given here).
T3 construct: mask peptide for the CD3 scFv
T3 peptide: AYCGPEFDESVGCM
Nature of the experiment: ELISA, TCE on captured biotin-peptide.

Experiment [4] addresses T4, Peptide-71 (cysteine pairing not given here; also: biotinylated, site not given here).
T4 construct: mask peptide for the CD3 scFv
T4 peptide: VDCGPDGDESILCY
Nature of the experiment: ELISA, TCE on captured biotin-peptide.

In experiment [5] the target is T5, Peptide-68 (cysteine pairing not given here; also: biotinylated, site not given here).
T5 construct: mask peptide for the CD3 scFv
T5 peptide: DWCWYSPDNDGLCD
Kind of experiment: ELISA, TCE on captured biotin-peptide.

Experiment [6] deals with T6, Peptide-67 (cysteine pairing not given here; also: biotinylated, site not given here).
T6 construct: mask peptide for the CD3 scFv
T6 peptide: VYCGPEFDESVGCM
Kind of experiment: ELISA, TCE on captured biotin-peptide.

Experiment [7] concerns the target T7, Peptide-74 (cysteine pairing not given here; also: biotinylated, site not given here).
T7 construct: mask peptide for the CD3 scFv
T7 peptide: ASQCLGPEWEVCPY
Nature of the experiment: ELISA, TCE on captured biotin-peptide.

Experiment [8] has as its target T8, Peptide-73 (cysteine pairing not given here; also: biotinylated, site not given here).
T8 construct: mask peptide for the CD3 scFv
T8 peptide: VYCGPEFDESVGCA
Kind of experiment: ELISA, TCE on captured biotin-peptide.

Experiment [9] deals with T9, Peptide-69 (cysteine pairing not given here; also: biotinylated, site not given here).
T9 construct: mask peptide for the CD3 scFv
T9 peptide: SECLVDLQSDPCYW
Nature of the experiment: ELISA, TCE on captured biotin-peptide.

Experiment [10] addresses T10, CD3 (biotinylated CD3 antigen) (human, UniProt P07766 23-126, limits assumed, biotinylated (site not stated)).
T10 construct: also called CD3ε; human CD3
Nature of the experiment: ELISA, TCE on captured biotin-CD3.

The target in experiment [11] is T11, Peptide-76 (cysteine pairing not given here; also: biotinylated, site not given here).
T11 construct: mask peptide for the CD3 scFv
T11 peptide: YLCGPDADETLACY
Kind of experiment: ELISA, TCE on captured biotin-peptide.

For experiment [12], the target named is T12, Peptide-70 (cysteine pairing not given here; also: biotinylated, site not given here).
T12 construct: mask peptide for the CD3 scFv
T12 peptide: YLCGPDGDETLACY
Nature of the experiment: ELISA, TCE on captured biotin-peptide.

Experiment [13] has as its target T13, Peptide-77 (cysteine pairing not given here; also: biotinylated, site not given here).
T13 construct: mask peptide for the CD3 scFv
T13 peptide: YLCGPDTDETLACY
Kind of experiment: ELISA, TCE on captured biotin-peptide.

Experiment [14] deals with T8, Peptide-73. Nature of the experiment: ELISA, TCE on captured biotin-peptide.
Method: Binding was measured in a standard ELISA format. […] The TROP2 TCE constructs diluted in buffer were then added to the peptide coated plates. Bound TCEs were detected using a standard horse radish peroxidase conjugate secondary antibody. The ELISA signal was plotted versus the log-scale concentration of TCE. The concentrations of TCE required to observe half maximal binding signal (EC₅₀s) were calculated using Graphpad Prism software.
Peptide mask sequences were also evaluated for their binding affinities against TROP2 TCE sequences harboring alanine mutations in the CDR3 regions of either or both of the TROP2 and CD3 binding domains.

Where two headings read alike, the source gives them in different places. Where no end group is shown, it is not given here.

T10 sequence (P07766 23-126 limits assumed): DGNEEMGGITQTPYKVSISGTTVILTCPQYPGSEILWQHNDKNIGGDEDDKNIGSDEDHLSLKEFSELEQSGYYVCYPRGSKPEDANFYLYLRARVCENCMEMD

B1: TCE-20 (anti-CD3 scFv S110A; anti-TROP2 wt) (bispecific antibody)
light: DIQLTQSPSSLSASVGDRVSITCKASQDVSIAVAWYQQKPGKAPKLLIYSASYRYTGVPDRFSGSGSGTDFTLTISSLQPEDFAVYYCQQHYITPLTFGAGTKVEIKRTVAAPSVFIFPPSDEQLKSGTASVVCLLNNFYPREAKVQWKVDNALQSGNSQESVTEQDSKDSTYSLSSTLTLSKADYEKHKVYACEVTHQGLSSPVTKSFNRGEC
heavy: not shown
notes: scFv on the Fab heavy chain; also called TCE-20 (S110A)
As to B1, the EC50 (commonly the concentration needed to bring the measured effect to its halfway point) in experiment [1] came to 3.65 nM; in experiment [2] it was 3.82 nM; in experiment [3], 0.76 nM; in experiment [4] it was 1.92 nM; in experiment [5], 0.16 nM; in experiment [6], 0.66 nM. For the same molecule, the figures for the concentration for a half-maximal effect (EC50) in experiment [7], in [8] and in experiment [9] were 3.46 nM, 0.83 nM and 0.95 nM, respectively.

B2: TCE-38 (anti-CD3 scFv F240A; anti-TROP2 F108A) (bispecific antibody)
light: DIQLTQSPSSLSASVGDRVSITCKASQDVSIAVAWYQQKPGKAPKLLIYSASYRYTGVPDRFSGSGSGTDFTLTISSLQPEDFAVYYCQQHYITPLTFGAGTKVEIKRTVAAPSVFIFPPSDEQLKSGTASVVCLLNNFYPREAKVQWKVDNALQSGNSQESVTEQDSKDSTYSLSSTLTLSKADYEKHKVYACEVTHQGLSSPVTKSFNRGEC
heavy: not shown
notes: scFv on the Fab heavy chain
Consider B2, for which the 50% effective concentration (EC50) in [10] worked out at 0.95 nM; in experiment [11], 222 nM; in experiment [12], 0.62 nM; in experiment [13] it was 336 nM; in [14] it was 8.87 nM.

Source of the values: US20230357429A1 (JANUX THERAPEUTICS, published 2023).
